We go through two molecules from patent US20150037348A1 (AbbVie / Abbott, published 2015).

The target in experiment [1] is T1, recombinant human IL-12 (rhIL-12) (human, UniProt P29459 23-219; P29460 23-328).
T1 construct: disulfide-linked p35/p40 heterodimer (p70); also called IL-12 p70; rec. human IL12
T1 sequence (looked up) 1: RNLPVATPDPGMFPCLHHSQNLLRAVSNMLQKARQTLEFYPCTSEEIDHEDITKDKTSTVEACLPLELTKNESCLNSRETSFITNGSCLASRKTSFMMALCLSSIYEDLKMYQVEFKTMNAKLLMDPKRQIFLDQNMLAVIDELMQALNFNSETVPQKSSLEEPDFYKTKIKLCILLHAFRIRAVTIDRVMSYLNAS
T1 sequence (looked up) 2: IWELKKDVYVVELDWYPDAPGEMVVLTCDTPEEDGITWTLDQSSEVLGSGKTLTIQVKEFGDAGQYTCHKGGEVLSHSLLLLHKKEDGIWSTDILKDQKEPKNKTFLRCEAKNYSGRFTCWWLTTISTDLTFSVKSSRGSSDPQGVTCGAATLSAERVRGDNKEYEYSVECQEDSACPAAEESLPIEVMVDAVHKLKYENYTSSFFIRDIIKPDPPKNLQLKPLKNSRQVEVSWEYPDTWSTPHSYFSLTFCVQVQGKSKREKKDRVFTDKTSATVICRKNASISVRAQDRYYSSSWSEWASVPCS
Briefly: biomolecular interaction assay (BIAcore). As for the experimental part: Three independent experiments were performed, and the values shown are averages for the three experiments. From these measurements, the apparent dissociation (kd) and association (kₐ) rate constants were derived and used to calculate a Kd value for the interaction (see Table 10).

Experiment [2] concerns the target T1, recombinant human IL-12 (rhIL-12). The experiment can be described thus: cell-based or functional assay.
Another experiment concerns the target T2, human M-CSF (human, UniProt P09603 33-190, limits assumed).
T2 sequence (looked up): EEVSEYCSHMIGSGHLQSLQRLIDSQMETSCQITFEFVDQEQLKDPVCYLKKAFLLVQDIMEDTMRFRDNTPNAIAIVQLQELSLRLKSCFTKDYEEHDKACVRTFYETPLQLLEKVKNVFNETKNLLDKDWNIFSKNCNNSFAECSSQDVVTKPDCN
The experiment can be described thus: competition ELISA: soluble cytokine against J695 (100 ng/ml) binding to immobilized human IL-12. Here is the method:
(§1) The plates were washed 4 times and incubated for 1 h at room temperature with 100 μl mouse anti-human lambda-HRP (1:500 in PBS-T/BSA, Southern Biotech. Ass. Inc., Birmingham, Ala.). The plates were washed 4 times and developed with ABTS (Kirkegaard & Perry Lab, Gaithersburg, Md.) for 20-30 minutes in the dark. The OD₄₅₀ nm was read using a microplate reader (Molecular Devices, Menlo Park, Calif.).
On the technique in general: In an ELISA, binding on a coated surface is turned into a signal by an enzyme label.

Another experiment addresses human TGF-β1 (human, UniProt P01137 279-390). Described as above. As for the experimental part: as §1
In the next experiment the target is T3, human IL-11 (human, UniProt P20809 22-199).
T3 sequence (looked up): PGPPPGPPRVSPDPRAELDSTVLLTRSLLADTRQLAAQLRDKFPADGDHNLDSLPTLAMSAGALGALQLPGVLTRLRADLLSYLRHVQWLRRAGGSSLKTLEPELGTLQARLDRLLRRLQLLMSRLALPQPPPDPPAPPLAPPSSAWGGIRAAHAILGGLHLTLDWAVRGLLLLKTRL
The experiment is described as above. As for the experimental part:
as §1

In another experiment the target is human IL-1β (human, UniProt P01584 117-269). The experiment is described as above. As for the experimental part: as §1
The next experiment deals with human IGF-II (human, UniProt P01344 25-91). The experiment is described as above. As for the experimental part: as §1
For another experiment, the target named is human TNFα (human, UniProt P01375 77-233). The experiment is described as above. As for the experimental part: as §1
The next experiment addresses human IL-8 (human, UniProt P10145 28-99, limits assumed). The description is as above. As for the experimental part: as §1
For the next experiment, the target named is human IL-17 (human, UniProt Q16552 20-155, limits assumed). The description is as above. Here is the method: as §1

B1: J695 (antibody, human IgG1, V domains shown)
VH: QVQLVESGGGVVQPGRSLRLSCAASGFTFSSYGMHWVRQAPGKGLEWVAFIRYDGSNKYYADSVKGRFTISRDNSKNTLYLQMNSLRAEDTAVYYCKTHGSHDNWGQGTMVTVSS
VL: QSVLTQPPSVSGAPGQRVTISCSGSRSNIGSNTVKWYQQLPGTAPKLLIYYNDQRPSGVPDRFSGSKSGTSASLAITGLQAEDEADYYCQSYDRYTHPALLFGTGTKVTVLG
notes: human IgG1 with lambda light chain
In the case of B1, in experiment [1], the dissociation constant Kd (in general, the concentration at which binding is half-saturated) came out at 97.4 pM. Moreover, in experiment [2], the “IFN gamma IC50” value is 5 pM and the “PHA assay IC50” value came out at 10 pM.

B2: J695 (antibody, V domains shown)
VH: B1 VH
VL: B1 VL
notes: Human IgG1 with lambda light chain (detected with anti-human lambda); Made in CHO or COS cells
As to B2, the binding result with human M-CSF, in the experiment with human TGF-β1, with human IL-11, with human IL-1β, with human IGF-II and in the experiment with human TNFα was “no binding (tested: 2 nM)” each time. The binding result with human IL-8 and with human IL-17 was “no binding (tested: 2 nM)” throughout.
